The text below walks through data of PMC6981877, “Conformational Plasticity of the Active Site Entrance in E. coli Aspartate Transcarbamoylase and Its Implication in Feedback Regulation” (International Journal of Molecular Sciences, 2020).

The data set deals with the molecule itself. Put plainly: crystal structure; native wild-type apo holoenzyme extracted from E. coli BL21(DE3); hanging drop, 0.1 M MES pH 6.0, 10% glycerol, 10% PEG 8000; space group R32, one catalytic and one regulatory chain in the asymmetric unit; 2.06 Å.

B1: E. coli aspartate transcarbamoylase (ATCase) catalytic chain (enzyme, E. coli (endogenous in BL21(DE3)), UniProt P0A786 1-311, looked up)
chain: MANPLYQKHIISINDLSRDDLNLVLATAAKLKANPQPELLKHKVIASCFFEASTRTRLSFETSMHRLGASVVGFSDSANTSLGKKGETLADTISVISTYVDAIVMRHPQEGAARLATEFSGNVPVLNAGDGSNQHPTQTLLDLFTIQETQGRLDNLHVAMVGDLKYGRTVHSLTQALAKFDGNRFYFIAPDALAMPQYILDMLDEKGIAWSLHSSIEEVMAEVDILYMTRVQKERLDPSEYANVKAQFVLRASDLHNAKANMKVLHPLPRVDEIATDVDKTPHAWYFQQAGNGIFARQALLALVLNRDLVL
notes: Aspartate transcarbamoylase catalytic chain, E. coli, wild type, native form lacking the His tag; Crystallised as part of the native holoenzyme; also called catalytic subunit; source: endogenous, extracted from E. coli BL21(DE3), purified as native holoenzyme (Ni-NTA, HiLoad Superdex 200)
Take B1: the binding result is reported as “binds”.

B2: E. coli aspartate transcarbamoylase (ATCase) regulatory chain (natural protein, E. coli (endogenous in BL21(DE3)), UniProt P0A7F3 1-153, looked up)
chain: MTHDNKLQVEAIKRGTVIDHIPAQIGFKLLSLFKLTETDQRITIGLNLPSGEMGRKDLIKIENTFLSEDQVDQLALYAPQATVNRIDNYEVVGKSRPSLPERIDNVLVCPNSNCISHAEPVSSSFAVRKRANDIALKCKYCEKEFSHNVVLAN
notes: Aspartate transcarbamoylase regulatory chain, E. coli, wild type, native; also called regulatory subunit; source: endogenous, extracted from E. coli BL21(DE3), purified as native holoenzyme (Ni-NTA, HiLoad Superdex 200)
As for B2, the binding result is given as “binds”.
